For orientation: Km means the concentration of substrate that gives half-maximal velocity.

Data on five proteins can be found in PMC11955521, “A GTP-driven central carbon metabolism in the cellulolytic bacterium Ruminiclostridium cellulolyticum” (Communications Biology, 2025).

Substrate in series [1]: Nc1nc2c(ncn2[C@@H]2O[C@H](COP(=O)(O)OP(=O)(O)O)[C@@H](O)[C@H]2O)c(=O)[nH]1
Briefly: HPLC-RI of pyruvate. It is filed as biochemical, Ruminiclostridium cellulolyticum. The following applies: PEP 10 mM, no FBP, 20 mM MgCl2, 30 mM KCl, 25 mM HEPES pH 7.0, 37 °C. The text has this: (§1) HPLC-RI of pyruvate on Pyruvate kinase (PK)

Substrate in series [2]: Nc1ncnc2c1ncn2[C@@H]1O[C@H](COP(=O)(O)OP(=O)(O)O)[C@@H](O)[C@H]1O
Briefly: HPLC-RI of pyruvate. The format is biochemical, Ruminiclostridium cellulolyticum. Particulars: PEP 10 mM, no FBP, 20 mM MgCl2, 30 mM KCl, 25 mM HEPES pH 7.0, 37 °C, Hill fit, nH 1.41.
Excerpt: as §1

Substrate in series [3]: C=C(OP(=O)(O)O)C(=O)O
Briefly: HPLC-RI of pyruvate. It is filed as biochemical, Ruminiclostridium cellulolyticum. The following applies: ADP 5 mM, no FBP, 20 mM MgCl2, 30 mM KCl, 25 mM HEPES pH 7.0, 37 °C, Hill fit, nH 1.32.
Excerpt: as §1

Substrate in series [4]: CC(=O)O
Briefly: purified protein. The following applies: reverse reaction, ATP 10 mM, 20 mM MgCl2, 25 mM HEPES pH 7.0, 37 °C.

Substrate in series [5]: CC(=O)OP(=O)(O)O
Briefly: HPLC-RI of products. It is filed as biochemical, Ruminiclostridium cellulolyticum. The following applies: ADP 10 mM, 20 mM MgCl2, 25 mM HEPES pH 7.0, 37 °C. The text has this:
(§2) HPLC-RI of products on Acetate kinase (AK)

Substrate in series [6]: Nc1nc2c(ncn2[C@@H]2O[C@H](COP(=O)(O)OP(=O)(O)O)[C@@H](O)[C@H]2O)c(=O)[nH]1
Briefly: HPLC-RI of products. It is filed as biochemical, Ruminiclostridium cellulolyticum. Particulars: acetyl-P 5 mM, 20 mM MgCl2, 25 mM HEPES pH 7.0, 37 °C.
Excerpt: as §2

Substrate in series [7]: Nc1ncnc2c1ncn2[C@@H]1O[C@H](COP(=O)(O)OP(=O)(O)OP(=O)(O)O)[C@@H](O)[C@H]1O
Briefly: HPLC-RI of products. Particulars: reverse reaction, acetate 10 mM, 20 mM MgCl2, 25 mM HEPES pH 7.0, 37 °C. The format is biochemical, Ruminiclostridium cellulolyticum.
Excerpt: as §2

Substrate in series [8]: Nc1ncnc2c1ncn2[C@@H]1O[C@H](COP(=O)(O)OP(=O)(O)O)[C@@H](O)[C@H]1O
Briefly: HPLC-RI of products. The following applies: acetyl-P 5 mM, 20 mM MgCl2, 25 mM HEPES pH 7.0, 37 °C. The format is biochemical, Ruminiclostridium cellulolyticum.
Excerpt: as §2

Substrate in series [9]: Nc1ncnc2c1ncn2[C@@H]1O[C@H](COP(=O)(O)OP(=O)(O)OP(=O)(O)O)[C@@H](O)[C@H]1O
Briefly: HPLC-RI of products. It is filed as biochemical, Ruminiclostridium cellulolyticum. The following applies: xylulose 2.5 mM, 20 mM MgCl2, 25 mM HEPES pH 7.0, 37 °C. From the text:
(§3) HPLC-RI of products on Xylulokinase (XK)

Substrate in series [10]: Nc1nc2c(ncn2[C@@H]2O[C@H](COP(=O)(O)OP(=O)(O)OP(=O)(O)O)[C@@H](O)[C@H]2O)c(=O)[nH]1
Briefly: HPLC-RI of products. The following applies: xylulose 2.5 mM, 20 mM MgCl2, 25 mM HEPES pH 7.0, 37 °C. The format is biochemical, Ruminiclostridium cellulolyticum.
Excerpt: as §3

Substrate in series [11]: O=C(CO)[C@@H](O)[C@H](O)CO
Briefly: HPLC-RI of products. The format is biochemical, Ruminiclostridium cellulolyticum. Particulars: GTP 10 mM, 20 mM MgCl2, 25 mM HEPES pH 7.0, 37 °C.
Excerpt: as §3

Substrate in series [12]: Nc1nc2c(ncn2[C@@H]2O[C@H](COP(=O)(O)OP(=O)(O)O)[C@@H](O)[C@H]2O)c(=O)[nH]1
Briefly: purified protein. The format is biochemical, Ruminiclostridium cellulolyticum. Particulars: forward, 3 mM glyceraldehyde-3-P, 1.1 mM NAD+, 10 mM MgCl2, 50 mM phosphate pH 7.0, 15 mM cysteine, 37 °C, 1,3-BPG concentration unknown, Hill fit, nH 1.63.

Substrate in series [13]: Nc1ncnc2c1ncn2[C@@H]1O[C@H](COP(=O)(O)OP(=O)(O)O)[C@@H](O)[C@H]1O
Briefly: purified protein. Particulars: forward, 3 mM glyceraldehyde-3-P, 1.1 mM NAD+, 10 mM MgCl2, 50 mM phosphate pH 7.0, 15 mM cysteine, 37 °C, 1,3-BPG concentration unknown, Hill fit, nH 4.03. It is filed as biochemical, Ruminiclostridium cellulolyticum.

Substrate in series [14]: Nc1ncnc2c1ncn2[C@@H]1O[C@H](COP(=O)(O)OP(=O)(O)OP(=O)(O)O)[C@@H](O)[C@H]1O
Briefly: GAPDH-coupled NADH oxidation. It is filed as biochemical, Ruminiclostridium cellulolyticum. The following applies: reverse, 3-PG 4 mM, 0.3 mM NADH, 10 mM MgCl2, 50 mM phosphate pH 7.0, 15 mM cysteine, 37 °C.

Substrate in series [15]: Nc1nc2c(ncn2[C@@H]2O[C@H](COP(=O)(O)OP(=O)(O)OP(=O)(O)O)[C@@H](O)[C@H]2O)c(=O)[nH]1
Briefly: GAPDH-coupled NADH oxidation. It is filed as biochemical, Ruminiclostridium cellulolyticum. Particulars: reverse, 3-PG 25 mM, 0.3 mM NADH, 10 mM MgCl2, 50 mM phosphate pH 7.0, 15 mM cysteine, 37 °C.

Substrate in series [16]: Nc1ncnc2c1ncn2[C@@H]1O[C@H](COP(=O)(O)OP(=O)(O)OP(=O)(O)O)[C@@H](O)[C@H]1O
Briefly: HPLC-RI, glucose consumption. It is filed as biochemical, Escherichia coli. Particulars: glucose 5 mM, 20 mM MgCl2, 25 mM HEPES pH 7.0, 37 °C.

B1: Pyruvate kinase (PK) (Ruminiclostridium cellulolyticum H10) (protein)
chain: MRRTKIICTLGPASDNEDILRKMMLGGMSLARMNFSHGTHEEHKKRADLVKKIREELNLPIPLLLDTKGPEIRTGKFKNDQAILKENNEFILVNEDILGDETKCTITYKELYKDVSRGSKILINDGLVELEVTEIKNKDIYCRVLNGGAVGNHKGINVPGAEIKLPSLTEQDIDDIKFGIKNDFDIIAASFVRKASDVVEIRKVLEKNGGKDILIIAKIENREGIKNFNDILKVSDGIMVARGDLGVEIPVEEVPIVQKNIIEKCYQNGKPVITATQMLDSMIRNPRPTRAEASDVANAIFDGTSCVMLSGETAAGKYPIETIEVMAKIAEKAEKSMDYWNRFATARTELDTSVTNAISHATCTTALDLKAAAIITVTQSGHTARMIARFRPACPIIATTANPKVQRQLNLSWGVMPYLVGIAKTTDDMFDNGVEKALESGLVKNGDLAVITAGMPAGISGTTNTLKVHIVGRVLVQGVGIGTSSVTGELCVAQNTKEAMDKFTDGNIIVAPFTDNSMLPVIKRASAIVVEEHGQSCHAATVGLALDIPVILGAENATKILKAGSVVTVDSERGLVIRCN
notes: full-length, C-terminal His tag (pET28a), E. coli BL21(DE3), Ni-NTA and anion exchange
Turning to B1, the Km in “HPLC-RI of pyruvate [1]” was 900 ± 140 µM; in the series “HPLC-RI of pyruvate [2]”, 1870 ± 140 µM; in the series “HPLC-RI of pyruvate [3]” it was 1560 ± 20 µM. Besides, the kcat in the series “HPLC-RI of pyruvate [1]” is given as 977 ± 48 iu/µmol; in the series “HPLC-RI of pyruvate [2]”, 9508 ± 328 iu/µmol; in “HPLC-RI of pyruvate [3]”, 9212 ± 50 iu/µmol.

B2: Acetate kinase (AK) (Ruminiclostridium cellulolyticum H10) (protein)
chain: MKVLVINAGSSSLKYQLIDMKNETVLAKGLCDRIGIDNSFIKQSRGSEEAVILNKELKNHKDAIEAVISALTDDNMGVIKNMSEISAVGHRIVHGGEKFNSSVVIDENVMNAVRECIDVAPLHNPPNIIGIEACQQIMPNIPMVAVFDTTFHSSMPDYAYLYALPYELYEKYGIRKYGFHGTSHKYVAERASAMLDKSLNELKIITCHLGNGSSICAVNKGKSIDTSMGFTPLQGLAMGTRSGTIDPEVVTFLMEKENLDVKGVSKLLNKKSGVLGISGVSSDFRDLHAAADAGNSRAELAIEIFCYGVKKFIGEYIAVMNGVDAIVFTAGVGENNSVVRNMIISDMDFLGIKIDEEKNKLRGQEVDISTADAAVRTLVIPTNEELAIARETVRLVK
notes: as for B1
As to B2, the Michaelis constant (Km) came to 2370 ± 380 µM in “purified protein [4]”; 1490 ± 200 µM in the series “HPLC-RI of products [5]”; 1470 ± 130 µM in the series “HPLC-RI of products [6]”; 1470 ± 170 µM in “HPLC-RI of products [7]”; 1130 ± 210 µM in “HPLC-RI of products [8]”. In addition, the kcat entry in “purified protein [4]” was “kcat = 12.85 ± 0.85 iu/umol”; in “HPLC-RI of products [5]” it was 25,112 ± 1755 iu/µmol; in “HPLC-RI of products [6]”, 35,365 ± 1,150 iu/µmol; in “HPLC-RI of products [7]”, 16.68 ± 0.74 iu/µmol; in the series “HPLC-RI of products [8]” it was 25,437 ± 1668 iu/µmol.

B3: Xylulokinase (XK) (Ruminiclostridium cellulolyticum H10) (protein)
chain: MSFLIGIDLGTSGVKTVLFDEAGKPVASSTVEYPLYQPNLGWAEQDPEEWWKGTCESINNVMLKSGVDKREVKGIGLSGQMHGAVLLDKDDKVLRNAIIWCDQRSAAECDEITDLIGRERLIEITANPALTGFTASKIMWVKNNEPQIFEKIAKILLPKDYIRFRLTGEYATEVSDASGMQLMNIAKREWSIEVLDKLGLSTSMLGKMYESQEVTGKVTSSAADQTGLNAGTIVVGGGGDQAAGAVGNGIVKSGIVSSTIGTSGVVFAYTDKLTIDPLGRVHTFCHAVPNTYHVMGVTQGAGLSLKWFRDNFCMEEMMTSELSDIDVYKLLDAEAETIKPCSDGLVYLPYLMGERTPHLDPNAKGVFFGLTAKHTKPHFIRSIMEGVTFSLRDCLEIIKGMGVDVSEVRASGGGGKSGIWRQMQADVFGTNINRIRSDEGPALGVAILAGVGAGIYDSVPQACEEVIKVKDTLAPVEDRIKKYDDFYKLYTKLYKSLKDDFNQLSTILK
notes: as for B1
Turning to B3, the Km in “HPLC-RI of products [9]” was 1180 ± 180 µM; in the series “HPLC-RI of products [10]”, 120 ± 20 µM; in “HPLC-RI of products [11]” it was 300 ± 70 µM. Moreover, the kcat in “HPLC-RI of products [9]” was 6653 ± 281 iu/µmol; in “HPLC-RI of products [10]”, 6540 ± 177 iu/µmol; in the series “HPLC-RI of products [11]” it was 8788 ± 375 iu/µmol.

B4: Phosphoglycerate kinase (PGK) (Ruminiclostridium cellulolyticum H10) (protein)
chain: MSMMNKKTIEDIDVAGKRVIVRVDFNVPLDENRKITDDKRIVGALPTIKYLVDKGAKTILVSHLGRPKEGFEDKFSMKPTAVRLGELLGKEIIMAKDVVGEDAKSKAAALKDGEVLMLENVRFHKEETKNDANFAKELASMAEIFVNDAFGTAHRAHASTAGLADYLPAVCGFLIKKEIEFMGKALANPARPFVAILGGAKVSDKIAVIENLIDKVDTLIIGGGMAYTFLKAKGYHIGNSICEEDKIDLAKTLMEKAEAKGVEIMLPIGSMVAQEFKNDTEIKYVPSDAMPDGWMGMDIGSLTIENFAKEIKKAKTVIWNGPMGVFEFPNFATGTKEIAKAVAESGALSIVGGGDSAAAVEQLGFADKITHISTGGGASLEFLEGKELPGIAVLMDKNPRKVIAAGNWKMNKTASEAVEFVNALKPAVADAKNEVVVGVPFVCLPGVVAAAKGSNIKVAAQNMHWEEKGAFTGEVSGPMLADLGVDYVIIGHSERREYFGETNEMINKKAHAIFKYGMTPIICCGETLTQREQGVTADHIRYQIKVALLDLTAEQVSKLVIAYEPIWAIGTGKTATNEQANEVCTIIRELVAELYGSEVAEHVRIQYGGSVNAKNATELFAMSDIDGGLVGGASLKVEDFSIIAKA
notes: full-length, C-terminal His tag (pET28a), E. coli BL21(DE3), Ni-NTA, anion exchange, gel filtration
With B4, the Km in the series “purified protein [12]” was determined as 135 ± 8 µM; in “purified protein [13]”, 80 ± 2 µM; in series [14] it was 480 ± 70 µM; in [15] it was 4660 ± 1240 µM. For the same protein, the kcat is reported as 771 ± 20 iu/µmol in “purified protein [12]”, 733 ± 12 iu/µmol in “purified protein [13]”, “kcat = 4256 ± 148 iu/umol” in series [14] and 2831 ± 348 iu/µmol in [15].

B5: E. coli glucokinase (GLK) (Escherichia coli K-12) (protein)
chain: MTKYALVGDVGGTNARLALCDIASGEISQAKTYSGLDYPSLEAVIRVYLEEHKVEVKDGCIAIACPITGDWVAMTNHTWAFSIAEMKKNLGFSHLEIINDFTAVSMAIPMLKKEHLIQFGGAEPVEGKPIAVYGAGTGLGVAHLVHVDKRWVSLPGEGGHVDFAPNSEEEAIILEILRAEIGHVSAERVLSGPGLVNLYRAIVKADNRLPENLKPKDITERALADSCTDCRRALSLFCVIMGRFGGNLALNLGTFGGVFIAGGIVPRFLEFFKASGFRAAFEDKGRFKEYVHDIPVYLIVHDNPGLLGSGAHLRQTLGHIL
notes: full-length, C-terminal His tag (pET22b+), E. coli BL21(DE3), Ni-NTA and anion exchange
For B5, in [16], the Km was 2470 ± 390 µM.
